Test results from patent US20120178908A1 (Novo Nordisk, published 2012).

How the values were obtained:
[1] = target: T1, TLT1 (human TLT-1, reagent of the SPR studies, source NN) (human, UniProt Q86YW5 16-162, limits assumed); test: SPR (Biacore), mAb immobilised directly on CM5, TLT1 as analyte
T1 sequence: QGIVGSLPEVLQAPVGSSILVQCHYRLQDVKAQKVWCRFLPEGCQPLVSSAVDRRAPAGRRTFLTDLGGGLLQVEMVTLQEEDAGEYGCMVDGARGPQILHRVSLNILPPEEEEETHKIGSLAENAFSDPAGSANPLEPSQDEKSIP
Method: The mAbs of interest were either immobilized directly to a CM5 chip or by capture via a human Fc capture mAb immobilized to a CM5 chip.
Direct capture: The TLT-1 mAbs were immobilised to a level of approx 500-1000 RU on a CM5 chip (50 μg/ml diluted in Na-acetate, pH 4.0) using the standard procedure recommended by the supplier. Two-fold dilutions of TLT1 from 200 nM to 0.2 nM were tested for binding to the mABs. Running and dilution buffer: 10 mM HEPES, 150 mM, 0.005% p20, pH 7.4. Regeneration was obtained by 10 mM Glycine, pH 1.7.

hTLT-1 ECD-HPC4 F54A = target: T2, hTLT-1 ECD-HPC4 F54A (human, UniProt Q86YW5 16-162); test: SPR (ProteOn), mAb captured by anti-hFc, 100 nM mutant, signal 10 s after injection normalised to captured mAb
T2 construct: As m27; also called Ala mutant 12
T2 chain: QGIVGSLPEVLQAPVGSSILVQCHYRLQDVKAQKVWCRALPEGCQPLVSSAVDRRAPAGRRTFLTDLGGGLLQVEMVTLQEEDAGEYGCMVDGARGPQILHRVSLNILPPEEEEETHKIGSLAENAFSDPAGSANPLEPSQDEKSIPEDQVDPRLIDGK
Method: (§1) Each anti-body was diluted in 10 mM sodium acetate pH 5.0 to a concentration of […], and was immobilized to an individual flow cell at 30 μl/min for 240s. The antibodies were immobilized to flow cells A1-A6 (horizontal direction). After immobilization, the active sites on the flow cell were blocked with 1 M ethanolamine. The final immobilization level of capture antibody typically ranged from approximately 9,000 to 10,000 RU in one experiment. Capture of the anti-TLT1 antibodies 0197-0000-0023, 0197-0000-0051, 0197-0000-0061 and 0197-0000-0062 was conducted by diluting to […] into HBS-EP buffer (10 mM HEPES, 150 mM NaCl, 3 mM EDTA, 0.05% surfactant P20, pH 7.4) and injected at 30 μl/min for 60s in vertical direction, creating interspot reference points with only anti-human Fc antibodies. The final capture level of test antibodies typically ranged from approximately 200 to 300 RU in one experiment. Binding of wt or Ala mutant hTLT-1 ECD-HPC4 protein was conducted by injecting over parallel flow cells in horizontal direction to allow for comparative analyses of binding to different captured anti-TLT1 antibodies relative to binding to the interspot references. Each hTLT-1 ECD-HPC4 protein was diluted to 100 nM, based on the calculated average Mw, into HBS-EP buffer and injected at 30 μl/min for 240s. The GLM chip was regenerated after each injection cycle of analyte via one 18 s injection of 1 M Formic acid followed by a 18s injection of 50 mM NaOH at 100 μl/min. This regeneration step removed the anti-TLT1 antibody and any bound TLT1 from the immobilized capture antibody surface, and allowed for the subsequent binding of the next test sample pair.
(§2) Data analysis was performed using the ProteOn Manager™ Software. No significant non-specific binding to the interspot control surfaces was observed. Binding curves were processed by double referencing (subtraction of interspot control surface signals as well as blank buffer injections over captured anti-TLT1 antibodies). This allowed correction for instrument noise, bulk shift and drift during sample injections. Binding signal at 10 s after stop of analyte injection was normalized to level of captured anti-TLT1 antibody and presented as binding relative to wt hTLT-1 ECD-HPC4 protein.

hTLT-1 ECD-HPC4 H116A = target: T3, hTLT-1 ECD-HPC4 H116A (human, UniProt Q86YW5 16-162); test: as above
T3 construct: As m27; also called Ala mutant 31
T3 chain: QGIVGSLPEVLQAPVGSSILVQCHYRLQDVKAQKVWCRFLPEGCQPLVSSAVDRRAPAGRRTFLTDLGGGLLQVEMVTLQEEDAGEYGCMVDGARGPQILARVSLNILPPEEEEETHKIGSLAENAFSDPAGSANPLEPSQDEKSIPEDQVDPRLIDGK
Method: as §1, §2

hTLT-1 ECD-HPC4 L42A = target: T4, hTLT-1 ECD-HPC4 L42A (human, UniProt Q86YW5 16-162); test: as above
T4 construct: As m27; also called Ala mutant 8
T4 chain: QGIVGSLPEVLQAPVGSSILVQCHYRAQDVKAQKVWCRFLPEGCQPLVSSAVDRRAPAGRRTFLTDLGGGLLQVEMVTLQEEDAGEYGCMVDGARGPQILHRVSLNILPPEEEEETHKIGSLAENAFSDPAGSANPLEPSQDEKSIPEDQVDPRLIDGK
Method: as §1, §2

hTLT-1 ECD-HPC4 Q43A = target: T5, hTLT-1 ECD-HPC4 Q43A (human, UniProt Q86YW5 16-162); test: as above
T5 construct: As m27; also called Ala mutant 9
T5 chain: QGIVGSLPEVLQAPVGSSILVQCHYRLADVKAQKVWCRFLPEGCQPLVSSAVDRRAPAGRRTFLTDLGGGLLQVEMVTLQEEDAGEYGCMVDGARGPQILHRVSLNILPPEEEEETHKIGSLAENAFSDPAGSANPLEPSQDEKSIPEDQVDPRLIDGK
Method: as §1, §2

hTLT-1 ECD-HPC4 R41A = target: T6, hTLT-1 ECD-HPC4 R41A (human, UniProt Q86YW5 16-162); test: as above
T6 construct: As m27; also called Ala mutant 7
T6 chain: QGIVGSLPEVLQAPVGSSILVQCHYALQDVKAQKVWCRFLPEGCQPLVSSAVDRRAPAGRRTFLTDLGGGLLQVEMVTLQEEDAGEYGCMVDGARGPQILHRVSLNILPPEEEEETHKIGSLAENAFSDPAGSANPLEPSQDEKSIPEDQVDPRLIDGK
Method: as §1, §2

hTLT-1 ECD-HPC4 R110A = target: T7, hTLT-1 ECD-HPC4 R110A (human, UniProt Q86YW5 16-162); test: as above
T7 construct: As m27; also called Ala mutant 30
T7 chain: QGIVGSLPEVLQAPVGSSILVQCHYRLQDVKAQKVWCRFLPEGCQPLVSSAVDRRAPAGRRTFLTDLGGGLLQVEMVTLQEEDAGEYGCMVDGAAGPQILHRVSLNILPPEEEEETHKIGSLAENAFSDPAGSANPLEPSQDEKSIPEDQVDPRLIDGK
Method: as §1, §2

hTLT-1 ECD-HPC4 M91A = target: T8, hTLT-1 ECD-HPC4 M91A (human, UniProt Q86YW5 16-162); test: as above
T8 construct: As m27; also called Ala mutant 24
T8 chain: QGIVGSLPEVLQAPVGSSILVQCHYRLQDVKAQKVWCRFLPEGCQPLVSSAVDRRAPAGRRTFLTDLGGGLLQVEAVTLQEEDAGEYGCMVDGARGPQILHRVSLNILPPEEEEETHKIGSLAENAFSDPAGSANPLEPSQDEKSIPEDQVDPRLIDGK
Method: as §1, §2

hTLT-1 ECD-HPC4 K46A = target: T9, hTLT-1 ECD-HPC4 K46A (human, UniProt Q86YW5 16-162); test: as above
T9 construct: As m27; also called Ala mutant 10
T9 chain: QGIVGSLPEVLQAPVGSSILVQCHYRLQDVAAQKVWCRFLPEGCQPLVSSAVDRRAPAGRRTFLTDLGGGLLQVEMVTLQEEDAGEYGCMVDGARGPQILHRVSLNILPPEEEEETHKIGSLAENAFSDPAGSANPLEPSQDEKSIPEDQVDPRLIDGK
Method: as §1, §2

[2] = target: T10, hTLT-1.126-162 (TLT-1 stalk peptide) (human); test: crystal structure of the Fab0100:hTLT-1.126-162 complex
T10 construct: Made by solid phase peptide synthesis; not glycosylated; also called chain P of the crystal structure
T10 peptide: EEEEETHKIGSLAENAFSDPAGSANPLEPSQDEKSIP
Text: Crystallogr. 40, 658-674) of the CCP4 suite (Bailey,S. (1994) Acta Crystallogr. Sect. D-Biol. Crystallogr. 50, 760-763). […] Additional crystallographic refinements, using the REFMAC5 software program (Murshudov, G. N. et al. Acta Crystallogr. Sect. D-Biol. Crystallogr. 53, 240-255), followed by computer graphics inspection of the electron density maps, model corrections and building, using the COOT software program (Emsley, P. et al. Acta Crystallogr. Sect. D-Biol. Crystallogr. 60, 2126-2132), were applied. The procedure was cycled until no further significant improvements could be made to the model.
The crystal was allowed to soak for about 15 seconds, then flash frozen in liquid N₂ and during data collection kept at 100 K by a cryogenic N₂ gas stream. Crystallographic data were subsequently collected to 1.85 Å resolution at beam-line BL911-3 (Ursby, T. et al. (2004) AIP Conference Proceedings 705, 1241-1246) at MAX-lab, Lund, Sweden. Space group determination, integration and scaling of the data were made in the XDS software package. Cell parameters for the synchrotron data were determined to be 82.54, 65.32, 108.05 Å, 90°, 95.15° and 90°, for a, b, c, α, β and γ, respectively, and space group was determined to be C2. Rsym for intensities of the data set was calculated to be 6.7%. […]

Binder	Kd [1] [nM]	koff [1] [s⁻¹]	kon [1] [M⁻¹ s⁻¹]	binding relative to wt hTLT-1 ECD-HPC4 (hTLT-1 ECD-HPC4 F54A)	binding relative to wt hTLT-1 ECD-HPC4 (hTLT-1 ECD-HPC4 H116A)	binding relative to wt hTLT-1 ECD-HPC4 (hTLT-1 ECD-HPC4 L42A)	binding relative to wt hTLT-1 ECD-HPC4 (hTLT-1 ECD-HPC4 Q43A)	binding relative to wt hTLT-1 ECD-HPC4 (hTLT-1 ECD-HPC4 R41A)	binding relative to wt hTLT-1 ECD-HPC4 (hTLT-1 ECD-HPC4 R110A)	binding relative to wt hTLT-1 ECD-HPC4 (hTLT-1 ECD-HPC4 M91A)	binding relative to wt hTLT-1 ECD-HPC4 (hTLT-1 ECD-HPC4 K46A)	binding result [2]
mAb 0062 HC2; LC2 (antibody, V domains shown, also called 0197-0000-0062; 0052HC.C91Y + 0052LC) VH: QVQLQQSGAEPMKPGASVKISCKATGYTFSSHWIEWIKQRPGHGLEWIGEILPGSGNTNYNEKFKGKATFTADTSSNTAYMQLSSLTSEDSAVYYCARGYYGLNYDWYFDVWGAGTTVTVSS VL: DIQMTQTTSSLSASLGDRVTISCRASQDISNYLNWYQQKPDGTVKLLIFYTSRLHSGVPSRFSGSGSGTDYSLTISNLEPEDIATYYCQQDTKLPYTFGGGTKLEMKR	4.12	0.00134	326000	< 0.6 fraction of wt binding	< 0.6 fraction of wt binding	< 0.6 fraction of wt binding	< 0.4 fraction of wt binding	< 0.2 fraction of wt binding	< 0.2 fraction of wt binding	< 0.4 fraction of wt binding	–	–
mAb 0023 HC2; LC2 (antibody, V domains shown, also called 0197-0000-0023) VH: EVRLVESGGGLVQPGGSLKLSCATSGFTFSDYFMYWIRQTPEKRLEWVAYISNGGDSSSYPDTVKGRFTISRDNAKNTLYLQMSRLKSEDTAMYYCATNKNWDDYYDMDYWGQGTSVTVSS VL: DIVVSQSPSSLAVSAGEKVTMSCKSSQSLLNSRTRKNYLAWYQQKPGQSPKLLIYWASTRESGVPDRFTGSGSGTDFTLTISSVQAEDLAVYYCKQSYNLLTFGAGTKLELKR	4.36	0.00125	287000	–	–	< 0.2 fraction of wt binding	< 0.2 fraction of wt binding	–	< 0.2 fraction of wt binding	< 0.4 fraction of wt binding	< 0.2 fraction of wt binding	–
Fab0100 (anti-TLT-1 Fab) (Fab, V domains shown, also called Fab 0061 (Fab 0012-LC.C36A; VH.T60N-CH1)) VH: EVKLLESGGGLVQPGGSLKLSCAASGFDFSRYWMTWVRQAPGKGLEWIGEINPDSSTINYNPSLKDKFIISRDNAKNTLYLQMSEVRSEDTALYYCASGVFTSWGQGTLVTVSA VL: DVVMTQTPLSLPVSLGDQASISCRSSQSLVHRNGNTYFHWALQKPGQSPKLLIYKVSNRFSGVPDRFSGSGSGTDFTLKISRVEAEDLGVYFCSQSTHVPYTFGGGTKLEIKR	–	–	–	–	–	–	–	–	–	–	–	binds
